assay: yeast display, Sf9 membrane polyspecificity reagent, FACS + sequencing; frameworks hold sequencing errors
Summary of the method: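 Synthetic nanobody libraries on Saccharomyces cerevisiae BJ5465 were galactose-induced for 36–48 hours, stained 1 hour at 4 °C with 10% biotinylated, detergent-solubilized Sf9 membrane reagent and enriched on streptavidin microbeads. FACS then separated cells into low and high (top ~1%) gates by anti-HA (expression) and streptavidin (reagent binding) fluorescence. Genes were colony-PCR amplified, MiSeq 2 × 250 sequenced and CDR-length filtered. A clone's polyreactivity label is that of its gate of origin.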

| Sequence | polyreactivity (PSR sort gate) |
| --- | --- |
| QVKLVESGGGLVQAGGSLRLSCAASGFIFAHYAMGWYRQAPGKERELVAAIRGGDGSTDYADSVKGRFTISRDNAKNTVYLQMNSLIPEDTAVYYCAKRGKRSRGVGGNYWGQGTQVTVSS | low polyreactivity |
| QVKLVESGGGLVQAGGSLRLSCAASGFILGYYAMGWYRQAPGKERELVASISRRGGSTYYADSVKGRFTISRDNAKNTVYLQMNSLKPEDTAVYYCAASGYGRYPPYEYWGQGTQVTVSS | high polyreactivity |
| QVKLVESGGGLVQAGGSLRLSCAASGFTFNGYGMGWYRQAPGKERELVAAISRSSGGTYYADSVKGRFTISRDNAKNTVYLQMNSLKPVDTAVYYCAATGYRTATPSWRYYYWGQGSQVTVSS | high polyreactivity |
| QVKLVESGGGLVQAGGSLRLSCAASGFTFSRNTRGWYRQAPGKERELVAAIDSTGGSTYYADSEKGRFTISRDNAKNTVYLQMNCLNPEDTAVYYCATVLPDGRVRLRILWGKRVWYDYWGQGTHVTVSS | low polyreactivity |
| QVKLVESGGGLVQAGGSLRLSCAASGFTIQRYAMGWYRQAPGKERELVAAITSGGSTYYADSVKGRFTISRDNAKNTVYLQMNSLKPEDTAVYYCATRAVWSSWGRRYDSWGQGTQVTVSS | high polyreactivity |
| QVKLVESGGGLVQAGGSLRLSCAASGITFGYNAMGWDRQAPGKERELVAAITGGSTYYADSVKGRFTISRDNAKNTFYLQMNSLKPEDSAVYYCATDPRRFWVIYYYWGQGTQVTVSS | low polyreactivity |
| QVKLVESGGGLVQAGGSLRLSCAASGLIFGYNTMGWYRQAPGKERELVAAITRSGGSTYYADSVKGRFTISRDNAKNTVYLQMNSLKPEDTAVYYCAARHRSAYYHLDYWGQGTQVTVSS | high polyreactivity |
| QVKLVESGGGLVQAGGSLRLSCAASGRIFGYYDMGLYRQAPGKDRELVAAISWNGGSTSYADSVKGRFTISRDNAKNTVYLQMNSLKPEDTAVYYCAAETQYDGYVGSFYYWGQGTQVTVSS | low polyreactivity |
| QVKLVESGGGLVQAGGSLRLSCAASGRIFYYNAMGWYRQAPGKERELVSAIRVRGGSTYYADSVKGRFTISRDNAKNTVYLQMNSLNPEDTAVYYCNSSDYKISATNAVVRYYYWGQGTQVTVSS | high polyreactivity |
| QVKLVESGGGLVQAGGSLRLSCAASGRTFASNAMGWYRQAPGKERELVADISSSGGTTYYADSVKGRFTISRDNAKNTVYLQMNSLKPEDTAVYYCAAVSSQDDPVKAWDYEYWGQGTQVTVSS | low polyreactivity |
| QVKLVESGGGLVQAGGSLRLSCAASGRTFLRYTMGWYRQAPGKEREFVAAISYDTSSTNYADSVKGRFTISRDNAKNNLYLQMNSLKPEDTAVYYCATGPYYGYDEFDYWGQGTQVTVSS | low polyreactivity |
| QVKLVESGGGLVQAGGSLRLSCAASGRTFYRNTMGWYRQAPGKERELVAAITRSGGSTYYADSVKGRFTISRDNAKNTVYLQMNRLKPEDTAVYYCARPKIHGETRSYGYGYWGQGTQVTVSS | high polyreactivity |
| QVKLVESGGGLVQAGGSLRLSCAASGSIFRYYAMGWYRQAPGKERELVAAMTASGGRTHYADSVKGRFTISRDNAKNTVYLQMNSLKLEDTAVYYCAADLYYAWYWKQHYDYCGQGTQVTVSS | high polyreactivity |
| QVKLVESGGGLVQAGGSLRLSCAASGSIFTYYAMGWYRQAPGKERELVADIRWSGGSTYYADSVKGRFTISRDNAKNTVYLQMNSLKPEDTAVYYCNARYYSYWPIYNFDYWGQGTQVTVSS | low polyreactivity |
| QVKLVESGGGLVQAGGSLRLSCAASGSIFYYYAMGWYREAPGKERELVAAISYGGGSTYYADSVKGRFTISRDNAKNTVYLQMNSLKPEDTAVYYCAVQEVVGWYLYDYWGHGTQVTVSS | high polyreactivity |
| QVKLVESGGGLVQAGGSLRLSCAASGSIISGYAMGWYRQAPGKERELVAAISSSGGRTYYADSVKGRFTISRDNAKNTVYLQMYSLKPEDTAVYYCATVWSIVRGSYYNRYDYWGQGTQVTVSS | high polyreactivity |

| Sequence | polyreactivity (PSR sort gate) |
| --- | --- |
| QVKLVESGGGLVQAGGSLRLSCAASGSTFSPYVKAWYRQAPGKERELVAAIRYRGGSTYYADSVKGRFTISRDNAKNTVYLQMNSLKPEDTAVYYCATKRSHYSGGYWGQGTQVTVSS | high polyreactivity |
| QVKLVESGGGLVQAGGSLRLSCAAYGFIISYYAMGWYRQQPGKEREFVAVISRGGNTYYADSVKGRFTISRDNAKNTVYLQMNSLKPVDTAVYYCAASVPPYYPRQRHDGYDYWVQGTQVTVSS | low polyreactivity |
| QVKLVESGGGLVQAGGSLRLSCAAYGLIMGRYAMGWYRQEPGKERELVAAISGSGGSTYYADSVKGRFTISRDNAKNTVYLQMNSLKPEDTAVYYCAADRLRYRDMYYWGQGTQVTVSS | low polyreactivity |
| QVKLVESGGGLVQAGGSLRLSCGASGSTFGAYAMGWYRQAPGKERELVAVINSDGSTNYADSVKGRFTISRDNAKNTVYLQMNSMKPEDTAVYYCAKERTSRGGVPRMNYWGQGTQVTVSS | low polyreactivity |
| QVKLVESGGGLVQAGGSLRLSCSASGFTFRFYAMGWYIQAPGKERELVASITRSGGSTYYADSVKGRFTISRDNAKNTVYLQMNSLKPEDTAVYYCAAYRCYVSYKEMYYLGQGTQVTVSS | high polyreactivity |
| QVKLVESGGGLVQAGGSLRLSFAAYGSIFAWYGMGWYRQAPGKERELVAAISTAGSTNYADSVKGRFTISRDNAKNTVYLQMNSLKPEDTAVYYCAKKSSWYYQERFDYWGQGTQVTASS | low polyreactivity |
| QVKLVESGGGLVQAGGSLRLSFDASGSTFYFYAMGLYRQDPGKETEFFAAITQSGGSTNYADSVKGRFTISRDKAKNTVYLQMNSLKPEDTAVYYCSAREWRSFDYWGQGTQVTVSS | low polyreactivity |
| QVKLVESGGGLVQAGGSLRLSSAASGSTFEYNAMGWYRQAPGKERELVASSTNYADSVKGRFTISRDNAKNTVYLQMTSRKPEDTAVYYCAREQGVNRNHDYWGQGTQVTVSS | low polyreactivity |
| QVKLVESGGGLVQAGGSLSLSCDASGFISVQNALGCYRQAPGKERELVASITSDGSTYYADSVKGRFTISRDNAKNTVYLQMTSLKPEDTAVYDCAKVNNSYSGFTTTLEYWGQGTQVTVSS | low polyreactivity |
| QVKLVESGGGLVQEGGSLRLSCAASGRICGNYSMGWYRQAPGKERELVAAIDLSGDSTYYADSVKGRFTISRDNAKNTVYLQMNSLKPEDTAVYYCAATDWFSEYYWGQGTQVTVSS | low polyreactivity |
| QVKLVESGRGLVQAGGSLRLSCAASGITFISNAMAVYRQAPGKERELVAAISYRGGSTYYADSVKGRFTISRDNAKNTVYLQMNSLKPEDTAVYDCAARFHYPGGPRYYYWGQGTQVTVSS | high polyreactivity |
| QVKLVESGVGLVQAGGSLRLSCGASGFIFVRYAIVWSRQAPGKERDLVAAISGSGGRTYYAYSVKGRFTISRDNAKNTVYLKMNSLKPEDTSVYYCNVKSYTYGYLPYDYWGQGTQVTVSS | high polyreactivity |
| QVKLVESVGGLVQAGGRLRLSCAASGSILYFNAMGWYRQAPGKERELVAAISKSGGRTYYADSVKGRFTISRDNAKNTVYLQMNCLKPEDTAVYYCAKDNYWGQGTQVTVSS | high polyreactivity |
| QVKLVESWRGLVPAGVSLRLSCAASVNILDYYAMGWYRQAPGNERELVASITSGGGTYYADSVKGRFTISRDNAKNTVYLQMNSLKPEDTAVYYCNAGPKRTYSPPWRVRYYDWGQGTQVTVSS | high polyreactivity |
| QVKLVVSGGGLVQAGGSLRLTCAASGRTFRRNAMGWYRQAPGKERELVAAISTSGGRTYYADSVKGRFTISRDNAKNTVYLQMNSLKAEDTAVYYCAADIPQTEGYWGQGTQVTVSS | low polyreactivity |
| QVKQQESGGGLVKAGGSLRLSCAASGNISNHNDMGRYRQAPGKEREFVAGITAGGITNYADRVKGRCTISRDNAKNTVYLQMNCLKPEETAVYYCAAYADYAKSYGYWGQGTQATVSS | low polyreactivity |
